The test system of data set [1] is HeLa Kyoto. The experiment in a line: melting temperature (median over replicates), in situ; higher = more thermally stable.
The test system of data set [2] is HeLa Kyoto. The data set is described as follows: solubility change mitosis vs G1/S (difference of NP-40 vs SDS log2 ratios) (log2 ratio difference); higher = more soluble in mitosis.
The subject of data set [3] is HeLa Kyoto. The data set is described as follows: thermal stability score vs G1/S (z-score of summed log2 fold changes over temperatures); higher = more thermally stable than in G1/S.
Data set [4] has as its system HeLa Kyoto. The data set is described as follows: solubility in G1/S (NP-40 vs SDS abundance) (log2 ratio); higher = more soluble. Particulars: cell cycle stage: G1/S.
The mark [5] stands for this setting: cell cycle stage: early G1 (4.5 h after nocodazole release).
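For melting temperature (median over replicates), in situ in this document: HeLa Kyoto cells synchronized by double thymidine or nocodazole block, proteins quantified by TMT10plex mass spectrometry, three independent biological replicates.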
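For solubility change mitosis vs G1/S (difference of NP-40 vs SDS log2 ratios) in this document: synchronized HeLa Kyoto cells (double thymidine block for G1/S, nocodazole release for mitosis), protein amounts in NP-40 versus SDS lysates quantified by mass spectrometry, three biological replicates.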
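For solubility in G1/S (NP-40 vs SDS abundance) in this document: HeLa Kyoto cells arrested at G1/S by double thymidine block, proteins quantified by TMT10plex mass spectrometry in mild NP-40 versus SDS extracts, three biological replicates.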
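For thermal stability score vs G1/S (z-score of summed log2 fold changes over temperatures) in this document: synchronized HeLa Kyoto cells, proteins quantified by TMT10plex mass spectrometry, three biological replicates, mitosis taken 0.5 h after nocodazole release, G1/S directly after double thymidine block.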

As to “MDTKEEKKERKQSYFARLKKKKQAKQNAETASAVATRTHTGKEDNNTVVLEPDKCNIAVEEEYMTDEKKKRKSNQLKEIRRTELKRYYSIDDNQNKTHDKKEKKMVVQKPHGTMEYTAGNQDTLNSIALKFNITPNKLVELNKLFTHTIVPGQVLFVPDANSPSSTLRLSSSSPGATVSPSSSDAEYDKLPDADLARKALKPIERVLSSTSEEDEPGVVKFLKMNCRYFTDGKGVVGGVMIVTPNNIMFDPHKSDPLVIENGCEEYGLICPMEEVVSIALYNDISHMKIKDALPSDLPQDLCPLYRPGEWEDLASEKDINPFSKFKSINKEKRQQNGEKIMTSDSRPIVPLEKSTGHTPTKPSGSSVSEKLKKLDSSRETSHGSPTVTKLSKEPSDTSSAFESTAKENFLGEDDDFVDLEELSSQTGGGMHKKDTLKECLSLDPEERKKAESQINNSAVEMQVQSALAFLGTENDVELKGALDLETCEKQDIMPEVDKQSGSPESRVENTLNIHEDLDKVKLIEYYLTKNKEGPQVSENLQKTELSDGKSIEPGGIDITLSSSLSQAGDPITEGNKEPDKTWVKKGEPLPVKLNSSTEANVIKEALDSSLESTLDNSCQGAQMDNKSEVQLWLLKRIQVPIEDILPSKEEKSKTPPMFLCIKVGKPMRKSFATHTAAMVQQYGKRRKQPEYWFAVPRERVDHLYTFFVQWSPDVYGKDAKEQGFVVVEKEELNMIDNFFSEPTTKSWEIITVEEAKRRKSTCSYYEDEDEEVLPVLRPHSALLENMHIEQLARRLPARVQGYPWRLAYSTLEHGTSLKTLYRKSASLDSPVLLVIKDMDNQIFGAYATHPFKFSDHYYGTGETFLYTFSPHFKVFKWSGENSYFINGDISSLELGGGGGRFGLWLDADLYHGRSNSCSTFNNDILSKKEDFIVQDLEVWAFD [NCOA7]”, the figures for the melting temperature in the data set on HeLa Kyoto [1] (cell cycle stage: G1/S) and in the data set on HeLa Kyoto [1] (cell cycle stage: mitosis) were 51 °C and 50.9 °C, respectively. In the data set with HeLa Kyoto [2], the “solubility change mitosis (log2)” value is -0.15. In addition, the thermal stability score in the data set with HeLa Kyoto [3] (setting [5]) was -0.286; with HeLa Kyoto [3] (cell cycle stage: mitosis), -0.429. Also, the “solubility in G1/S (log2)” value in the data set with HeLa Kyoto [4] was 0.0391.
For the sequence “MDTPLRRSRRLGGLRPESPESLTSVSRTRRALVEFESNPEETREPGSPPSVQRAGLGSPERPPKTSPGSPRLQQGAGLESPQGQPEPGAASPQRQQDLHLESPQRQPEYSPESPRCQPKPSEEAPKCSQDQGVLASELAQNKEELTPGAPQHQLPPVPGSPEPYPGQQAPGPEPSQPLLELTPRAPGSPRGQHEPSKPPPAGETVTGGFGAKKRKGSSSQAPASKKLNKEELPVIPKGKPKSGRVWKDRSKKRFSQMLQDKPLRTSWQRKMKERQERKLAKDFARHLEEEKERRRQEKKQRRAENLKRRLENERKAEVVQVIRNPAKLKRAKKKQLRSIEKRDTLALLQKQPPQQPAAKI [CCDC86]”, the melting temperature in the data set with HeLa Kyoto [1] (cell cycle stage: G1/S) was 57.2 °C; in the data set with HeLa Kyoto [1] (cell cycle stage: mitosis) it was 54.1 °C. Further, the “solubility change mitosis (log2)” value in the data set with HeLa Kyoto [2] turned out to be 0.956. Also, the thermal stability score with HeLa Kyoto [3] (setting [5]) is -0.356; in the data set with HeLa Kyoto [3] (cell cycle stage: mitosis), -4.77. In the data set with HeLa Kyoto [4], the “solubility in G1/S (log2)” value was -1.03.
As for “MDVERLQEALKDFEKRGKKEVCPVLDQFLCHVAKTGETMIQWSQFKGYFIFKLEKVMDDFRTSAPEPRGPPNPNVEYIPFDEMKERILKIVTGFNGIPFTIQRLCELLTDPRRNYTGTDKFLRGVEKNVMVVSCVYPSSEKNNSNSLNRMNGVMFPGNSPSYTERSNINGPGTPRPLNRPKVSLSAPMTTNGLPESTDSKEANLQQNEEKNHSDSSTSESEVSSVSPLKNKHPDEDAVEAEGHEVKRLRFDKEGEVRETASQTTSSEISSVMVGETEASSSSQDKDKDSRCTRQHCTEEDEEEDEEEEEESFMTSREMIPERKNQEKESDDALTVNEETSEENNQMEESDVSQAEKDLLHSEGSENEGPVSSSSSDCRETEELVGSNSSKTGEILSESSMENDDEATEVTDEPMEQD [PPP4R2]”, the melting temperature in the data set on HeLa Kyoto [1] (cell cycle stage: G1/S) came to 51.2 °C; with HeLa Kyoto [1] (cell cycle stage: mitosis), 51.7 °C. The “solubility change mitosis (log2)” value in the data set with HeLa Kyoto [2] is -0.111. Also, the thermal stability score in the data set with HeLa Kyoto [3] (setting [5]) is -0.271; with HeLa Kyoto [3] (cell cycle stage: mitosis), -0.968. Further, the “solubility in G1/S (log2)” value in the data set with HeLa Kyoto [4] was 0.000183.
Regarding “MDVFLMIRRHKTTIFTDAKESSTVFELKRIVEGILKRPPDEQRLYKDDQLLDDGKTLGECGFTSQTARPQAPATVGLAFRADDTFEALCIEPFSSPPELPDVMKPQDSGSSANEQAVQ [TCEB2]”, the melting temperature came out at 52 °C in the data set on HeLa Kyoto [1] (cell cycle stage: G1/S) and 51.8 °C in the data set with HeLa Kyoto [1] (cell cycle stage: mitosis). For the same sequence, in the data set with HeLa Kyoto [2], the “solubility change mitosis (log2)” value stood at 0.00166. Moreover, the thermal stability score in the data set with HeLa Kyoto [3] (setting [5]) is 1.2; with HeLa Kyoto [3] (cell cycle stage: mitosis), -0.75. Besides, the “solubility in G1/S (log2)” value in the data set with HeLa Kyoto [4] turned out to be 0.109.
On to “MDVLAEANGTFALNLLKTLGKDNSKNVFFSPMSMSCALAMVYMGAKGNTAAQMAQILSFNKSGGGGDIHQGFQSLLTEVNKTGTQYLLRMANRLFGEKSCDFLSSFRDSCQKFYQAEMEELDFISAVEKSRKHINTWVAEKTEGKIAELLSPGSVDPLTRLVLVNAVYFRGNWDEQFDKENTEERLFKVSKNEEKPVQMMFKQSTFKKTYIGEIFTQILVLPYVGKELNMIIMLPDETTDLRTVEKELTYEKFVEWTRLDMMDEEEVEVSLPRFKLEESYDMESVLRNLGMTDAFELGKADFSGMSQTDLSLSKVVHKSFVEVNEEGTEAAAATAAIMMMRCARFVPRFCADHPFLFFIQHSKTNGILFCGRFSSP [SERPINB6]”, for which the figures for the melting temperature in the data set with HeLa Kyoto [1] (cell cycle stage: G1/S) and with HeLa Kyoto [1] (cell cycle stage: mitosis) were 55.8 °C and 56.1 °C, respectively. Moreover, the “solubility change mitosis (log2)” value in the data set on HeLa Kyoto [2] was -0.136. The results for the thermal stability score in the data set with HeLa Kyoto [3] (setting [5]) and in the data set with HeLa Kyoto [3] (cell cycle stage: mitosis) were -1.49 and -2.35, respectively. Moreover, in the data set on HeLa Kyoto [4], the “solubility in G1/S (log2)” value is 0.174.

Values taken from the supplement of paper PMC5998384.
